Target: Calmodulin (UniProt P0DP23 1-149)
Test: other fluorescence titration

Binder | Kd [µM]
DRYLAIVHPMKSRLRRT (domain or fragment) [BSAT1R_(125-141), FRET biosensor with AT1R a.a. 125-141 (SMD2) between EYFPc and ECFP] | 13.9
YTLIAKALKKAAEIQKNQPRNDDIAKII (domain or fragment) [BSAT1R_(215-242mut), FRET biosensor with mutant AT1R a.a. 215-242 (SMD3) between EYFPc and ECFP] | 4.52
YTLIWKALKKAYEIQKNKPRNDDIFKII (domain or fragment) [BSAT1R_(215-242), FRET biosensor with AT1R a.a. 215-242 (entire SMD3) between EYFPc and ECFP] | 0.36
YTLIWKALKKAYEIQKNK (domain or fragment) [BSAT1R_(215-232), FRET biosensor with AT1R a.a. 215-232 (part of SMD3) between EYFPc and ECFP] | 1.05
FKRYFLQLLKYIPPKAKSH (domain or fragment) [BSAT1R_(309-327), FRET biosensor with AT1R a.a. 309-327 (SMD4JM) between EYFPc and ECFP] | 0.51
DQALAIVHPMKSQLRQT (domain or fragment) [BSAT1R_(125-141mut), FRET biosensor with mutant AT1R a.a. 125-141 (SMD2) between EYFPc and ECFP] | > 318
AKRYALQLLKAIPPKAQSH (domain or fragment) [BSAT1R_(309-327mut), FRET biosensor with mutant AT1R a.a. 309-327 (SMD4JM) between EYFPc and ECFP] | 6.6
